Assay [1] concerns peptide-HLA-A*02:01 yeast-display library. Kind of assay: Selection of the peptide-HLA-A*02:01 yeast-display library by multimerized TCR with deep sequencing. As to conditions: for cross-reactivity (breadth of tolerated amino acids per peptide position): round 3, accounting for peptide enrichment. In kind it is binding, human.
A further assay deals with T1, MMDFFNAQM-HLA-A*02:01 (Homo sapiens, UniProt P04439+P26368, D140Y/D185E/D98H/E176V/E277Q/G131W/G231S/I119V/I121R/I166T/I218V/N151K/N90K/P208A/P217A/Q86G/Q94H/R138H/R169H).
T1 construct: HLA-A*02:01 (1-275); BirA biotinylation site (implied by BirA biotinylation); made in house
Put plainly: Surface plasmon resonance of TCR binding to immobilized […]-HLA-A*02:01. The note with it: BIAcore T100, 25° C., equilibrium data, 1:1 binding model. On the technique in general: SPR reads the build-up and loss of mass on a sensor chip optically.

Numbering of substitutions follows the chain as printed.

Procedure for MMDFFNAQM-HLA-A*02:01: Inclusion bodies containing the separate proteins were dissolved in 8 M urea, 40 mM Tris-HCl pH 8.0, 10 mM EDTA, and 10 mM DTT. […] After 72 hours at 4° C., the protein was dialyzed in 10 L of 10 mM Tris-HCl and purified via weak ion exchange using a DEAE cellulose column. The protein elution was purified using size exclusion chromatography on a Superdex 200 column and ion-exchange chromatography on a 5/50 Mono Q column (GE Healthcare). Protein was biotinylated overnight with birA ligase, 100 μM biotin, 40 mM Bicine pH 8.3, 10 mM ATP, and 10 mM Magnesium Acetate at 4° C. after buffer-exchange to 1×HBS pH 7.2 in a 30 kDa filter (Millipore) before being run on a size exclusion Superdex 200 column.
A different flow cell was immobilized with non-relevant peptide-HLA-A2 to serve as blank control. […] Injections of TCR were stopped after 60 s to allow sufficient time for SPR signals to reach plateau. The dissociation constant (KD) was obtained by fitting equilibrium data with a 1:1 binding model using BIAcore evaluation software.

B1: TCR 2A: TIL TCR of Patient A, TRAV19/TRBV10-1; alpha chain SEQ ID NO: 258, beta chain SEQ ID NO: 259 (protein)
alpha: QKVTQAQTEISVVEKEDVTLDCVYETRDTTYYLFWYKQPPSGELVFLIRRNSFDEQNEISGRYSWNFQKSTSSFNFTITASQVVDSAVYFCALSEARGGATNKLIFGTGTLLAVQPNIQNPDPAVYQLRDSKSSDKSVCLFTDFDSQTNVSQSKDSDVYITDKCVLDMRSMDFKSNSAVAWSNKSDFACANAFNNSIIPEDTFFPSPESS
beta: EITQSPRHKITETGRQVTLACHQTWNHNNMFWYRQDLGHGLRLIHYSYGVQDTNKGEVSDGYSVSRSNTEDLPLTLESAASSQTSVYFCASSRDTVNTEAFFGQGTRLTVVEDLKNVFPPEVAVFEPSEAEISHTQKATLVCLATGFYPDHVELSWWVNGKEVHSGVCTDPQPLKEQPALNDSRYALSSRLRVSATFWQNPRNHFRCQVQFYGLSENDEWTQDRAKPVTQIVSAEAWGRAD
For B1, the “enrichment of peptides / HLA-linked epitope tag from the library” value in assay [1] (HLA-A*02:01 library) was “enriched peptides from the library”. Moreover, the “cross-reactivity (breadth of tolerated amino acids per peptide position)” value in assay [1] is on record as “more cross-reactive”.

B2: TCR 3B: TIL TCR of Patient B, TRAV19/TRBV10-1; alpha chain SEQ ID NO: 258, beta chain SEQ ID NO: 260 (protein)
alpha: B1 alpha
beta: B1 beta with T95F, N97S, T98N, A100Q, F101Y, Q104P, V111T
On to B2, for which the “affinity (dissociation constant, KD)” value in the assay with MMDFFNAQM-HLA-A*02:01 was “could not be determined”. Further, in assay [1] (400 nM TCR tetramer, over rounds of selection), the “TCR tetramer staining of selected library yeast” value is reported as “tetramer stained yeast gradually increased across the rounds of selection”. Further, the “enrichment of peptides / HLA-linked epitope tag from the library” value in assay [1] (HLA-A*02:01 library) is given as “enriched peptides from the library”. The “unique peptides selected at round 3” value in assay [1] (HLA-A*02:01 library, all four peptide lengths, deep sequencing) came out at 66. The “cross-reactivity (breadth of tolerated amino acids per peptide position)” value in assay [1] is “relatively specific”.

The values above are taken from patent publication US20250042969A1, “ANTIGEN DISCOVERY FOR T CELL RECEPTORS ISOLATED FROM PATIENT TUMORS RECOGNIZING WILD-TYPE ANTIGENS AND POTENT PEPTIDE MIMOTOPES” (The Board of Trustees of the Leland Stanford Junior …, priority 2017, published 2025).
